For series [1], the target named is T1, APE1 (Homo sapiens, UniProt P27695 1-318). In words: single-molecule TIRF; 2.5 mM EDTA; mean lifetime T2 12.4 s; 50 mM Hepes pH 7.4, 150 mM NaCl, 0.1 mg/ml BSA, 0.8% glucose, 2.5 mM EDTA, ~10 mM Trolox, catalase 0.04 mg/ml, glucose oxidase 1 mg/ml; room temperature; protein 0.1 nM (binary) or 1.5 nM each (ternary). The settings on record: protein: recombinant; tags: Cy3 NHS ester dye (about 2.1-2.4 labels per protein); label: 5'-biotin on strand 1 (immobilized); blunt outer ends; nicked.

The target of series [2] is T2, DNA polymerase beta (Pol β) (Homo sapiens, UniProt P06746 1-335). In words: single-molecule TIRF; 2.5 mM EDTA; mean lifetimes T2 7.4 s, T3 33.7 s; 50 mM Hepes pH 7.4, 150 mM NaCl, 0.1 mg/ml BSA, 0.8% glucose, 2.5 mM EDTA, ~10 mM Trolox, catalase 0.04 mg/ml, glucose oxidase 1 mg/ml; room temperature; protei.
The target of series [3] is T1, APE1. In words: single-molecule TIRF; 2.5 mM EDTA; mean lifetimes T2 4.3 s, T3 30.9 s; 50 mM Hepes pH 7.4, 150 mM NaCl, 0.1 mg/ml BSA, 0.8% glucose, 2.5 mM EDTA, ~10 mM Trolox, catalase 0.04 mg/ml, glucose oxidase 1 mg/ml; room temperature; protein 0.1 nM (binary) or 1.5 nM each (ternary). The settings on record: protein: recombinant; tags: Cy3 NHS ester dye (about 2.1-2.4 labels per protein); label: 5'-biotin on strand 1 (immobilized); blunt outer ends; 1-nt gap opposite G of template.

Series [4] has as its target T2, DNA polymerase beta (Pol β). Description: single-molecule TIRF; 2.5 mM EDTA; mean lifetime T2 19.8 s; 50 mM Hepes pH 7.4, 150 mM NaCl, 0.1 mg/ml BSA, 0.8% glucose, 2.5 mM EDTA, ~10 mM Trolox, catalase 0.04 mg/ml, glucose oxidase 1 mg/ml; room temperature; protei.
For series [5], the target named is T1, APE1. Description: single-molecule TIRF; 2.5 mM EDTA; mean lifetime T2 22.8 s; 50 mM Hepes pH 7.4, 150 mM NaCl, 0.1 mg/ml BSA, 0.8% glucose, 2.5 mM EDTA, ~10 mM Trolox, catalase 0.04 mg/ml, glucose oxidase 1 mg/ml; room temperature; protein 0.1 nM (binary) or 1.5 nM each (ternary). To be noted: protein: recombinant; tags: Cy3 NHS ester dye (about 2.1-2.4 labels per protein); label: 5'-biotin on strand 1 (immobilized); blunt.

B1: 3' nick 25-mer (dsDNA)
DNA 1: TGTGTGGAATACAGTGAGCGCAACG
DNA 2: CGTTGCGCTCAC
DNA 3: TGTATTCCACACA
modifications: 5'-phosphate on 13-mer; 3'-OH on 12-mer
Consider B1, for which the binding result (with APE1 [1]; in series [2]) was “binds” in each case.

B2: 1-nt gap 25-mer (dsDNA)
DNA 1: TGTGTGGAATACAGTGAGCGCAACG
DNA 2: CGTTGCGCTCA
DNA 3: TGTATTCCACACA
modifications: 5'-phosphate on 13-mer
As for B2, the binding result (with APE1 [3]; in series [4]) was “binds” in each case.

B3: undamaged DNA 25-mer (dsDNA)
DNA 1: TGTGTGGAATACAGTGAGCGCAACG
DNA 2: CGTTGCGCTCACTGTATTCCACACA
Consider B3, for which the binding result in the series with APE1 [5] is “binds”.

The record behind these values is paper PMC10148159, “Visualizing the coordination of apurinic/apyrimidinic endonuclease (APE1) and DNA polymerase β during base excision repair”.
